Broadly, the Kd is the concentration at which binding is half-saturated. A high value points to lower affinity.

The experiment deals with biotinylated human DLL3 protein expressed as a human IgG1 fusion protein (human) (UniProt Q9NYJ7). In words: Octet, biotinylated human DLL3-IgG1 fusion on streptavidin tips, single 50 nM, conditioned medium (relative KD). (In general: In BLI a coated tip is dipped into the sample, and binding shifts an interference pattern.)
Chain of biotinylated human DLL3 protein expressed as a human IgG1 fusion protein (human) (Q9NYJ7 27-492): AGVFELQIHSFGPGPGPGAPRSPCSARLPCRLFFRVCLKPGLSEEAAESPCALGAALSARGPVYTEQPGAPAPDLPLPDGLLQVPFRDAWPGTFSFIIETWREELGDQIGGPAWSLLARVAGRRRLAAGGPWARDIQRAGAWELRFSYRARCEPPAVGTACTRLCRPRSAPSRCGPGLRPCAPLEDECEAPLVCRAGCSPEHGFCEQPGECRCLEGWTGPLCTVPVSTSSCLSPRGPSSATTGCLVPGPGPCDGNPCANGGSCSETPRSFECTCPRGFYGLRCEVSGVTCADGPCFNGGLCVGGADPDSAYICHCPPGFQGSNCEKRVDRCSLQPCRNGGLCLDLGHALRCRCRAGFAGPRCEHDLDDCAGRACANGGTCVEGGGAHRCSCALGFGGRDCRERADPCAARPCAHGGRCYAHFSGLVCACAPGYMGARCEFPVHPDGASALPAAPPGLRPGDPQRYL

B1: anti-DLL3 trispecific protein, DLL3 binder 1H08 (protein, part only; not given: CD3 binder and albumin binder, part only)
chain, part: EVQLVESGGGLVQPGGSLTLSCVASGSTFSINAMGWYRRAPGKQRELVAGISSDGSKVLADSVKGRFTISRDNAKNSVYLQMNSLRAEDTAVYYCYYFRLVSGSSMRYWGQGTLVTVSSGGGGSGGGSGGGGSGGGSHHHHHH
In turn, B1 displayed a dissociation constant (Kd) of 17 nM.

B2: anti-DLL3 trispecific protein, DLL3 binder 2E08 (protein, part only; not given: anti-CD3 fragment and anti-albumin sdAb, part only)
chain, part: EVQLVESGGGLVQPGGSLTLSCVASGSRSSINAMGWYRRAPGKQRELVAGISADGSKVYADSVKGRFTISRDNAKNSVYLQMNSLRAEDTAVYYCYYFRTQSGSSMRYWGQGTLVTVSSGGGGSGGGSGGGGSGGGSHHHHHH
The molecule B2 yielded a dissociation constant Kd of 17 nM.

B3: anti-DLL3 trispecific protein, DLL3 binder 2H08 (protein, part only; not given: anti-CD3 fragment and anti-albumin domain, part only)
chain, part: EVQLVESGGGLVQPGGSLTLSCVASGSTSSINAMGWYRRAPGKQRELAAGISKDGSKVYADSAKGRFTISRDNAKNSVYLQMNSLRAEDTAVYYCYYFRTVSGSSSRYWGQGTLVTVSSGGGGSGGGSGGGGSGGGSHHHHHH
For B3, the dissociation constant (Kd) is 18 nM.

B4: anti-DLL3 trispecific protein, DLL3 binder 1C08 (protein, part only; not given: CD3 fragment and albumin sdAb, part only)
chain, part: EVQLVESGGGLVQPGGSLTLSCVASGSTSRINAMGWYRRAPGKQRELPAGISSDGSKVYAVSVKGRFTISRDNAKNSVYLQMNSLRAEDTAVYYCYYFRTVSGSPMRYWGQGTLVTVSSGGGGSGGGSGGGGSGGGSHHHHHH
B4: the Kd came out at 25 nM.

B5: anti-DLL3 trispecific protein, DLL3 binder 2F08 (protein, part only; not given: anti-CD3 fragment and anti-albumin domain, part only)
chain, part: EVQLVESGGGLVQPGGSLTLSCVASGSKSSINAMGWYRRAPGKQRELPAGISSNGTKVYADSAKVRFTISRDNAKNSVYLQMNSLRAEDTAVYYCYYFRTVLGTSMRYWGQGTLVTVSSGGGGSGGGSGGGGSGGGSHHHHHH
Regarding B5, the dissociation constant (Kd) was 20 nM.

B6: anti-DLL3 trispecific protein, DLL3 binder 3A05 (protein, part only; not given: anti-CD3 fragment and anti-albumin domain, part only)
chain, part: EVQLVESGGGLVQPGGSLTLSCAASGSSVSFLSMAWYRQAPGKKRELVAGISEAGSTDYIDSVKGRFTISRDNAKNSVYLQMNSLRAEDTAVYYCYAYRWRTRYTYWGQGTLVTVSSGGGGSGGGSGGGGSGGGSHHHHHH
As for B6, the Kd was 15 nM. This Kd and that of the molecule before are within 1.5-fold of each other.

B7: anti-DLL3 trispecific protein, DLL3 binder 4D03 (protein, part only; not given: anti-CD3 fragment and anti-albumin domain, part only)
chain, part: EVQLVESGGGLVQPGGSLTLSCAASGSSVRFLSMAWYRQAPGKKRELVAGISATGSTDYIDSVKGRFTISRDNAKNSVYLQMNSLRAEDTAVYYCYAYRWTRRYTYWGQGTLVTVSSGGGGSGGGSGGGGSGGGSHHHHHH
As for B7, the dissociation constant (Kd) was 26 nM.

B8: anti-DLL3 trispecific protein, DLL3 binder 4H06 (protein, part only; not given: anti-CD3 and anti-albumin domains, part only)
chain, part: EVQLVESGGGLVQPGGSLTLSCAASGRSVSFLSMAWYRQAPGKKRELVAGISADGSTIYIDSVKGRFTISRDNAKNSVYLQMNSLRAEDTAVYYCYAYRWTTRYTYWGQGTLVTVSSGGGGSGGGSGGGGSGGGSHHHHHH
For B8, the equilibrium dissociation constant (Kd) stood at 18 nM. The Kd values of the last two molecules are within 1.5-fold of each other.

B9: anti-DLL3 trispecific protein, DLL3 binder 3B06 (protein, part only; not given: anti-CD3 fragment and anti-albumin sdAb, part only)
chain, part: EVQLVESGGGLVQPGGSLTLSCAASGKSVSFLSMAWYRQAPGKKRELVAGISKDGSTDYIDSVKGRFTISRDNAKNSVYLQMNSLRAEDTAVYYCYAYRWTTRYTYWGQGTLVTVSSGGGGSGGGSGGGGSGGGSHHHHHH
B9 displayed an equilibrium dissociation constant (Kd) of 15 nM.

B10: anti-DLL3 trispecific protein, DLL3 binder 4H09 (protein, part only; not given: anti-CD3 and anti-albumin domains, part only)
chain, part: EVQLVESGGGLVQPGGSLTLSCAASGSSVSKLSMAWYRQAPGKKRELVAGISADGSTDYRDSVKGRFTISRDNAKNSVYLQMNSLRAEDTAVYYCYAYRWTYRYTYWGQGTLVTVSSGGGGSGGGSGGGGSGGGSHHHHHH
B10 had a Kd of 16 nM.

B11: anti-DLL3 trispecific protein, DLL3 binder 3D08 (protein, part only; not given: anti-CD3 fragment and anti-albumin sdAb, part only)
chain, part: EVQLVESGGGLVQPGGSLTLSCAASGSSVRFLSMAWYRQAPGKKRELVAGISANGSTDYIDSVKGRFTISRDNAKNSVYLQMNSLRAEDTAVYYCYAYRWTNRYTYWGQGTLVTVSSGGGGSGGGSGGGGSGGGSHHHHHH
B11 yielded a dissociation constant Kd of 17 nM. The Kd values of the last two molecules are within 1.5-fold of each other.

B12: anti-DLL3 trispecific protein, DLL3 binder 3D05 (protein, part only; not given: CD3 binder and albumin binder, part only)
chain, part: EVQLVESGGGLVQPGGSLTLSCAASGSSVRFLSMAWYRQAPGKKRELVAGISADGSTDYIDSVKGRFTISRDNAKNSVYLQMNSLRAEDTAVYYCYAYRWTRRYTYWGQGTLVTVSSGGGGSGGGSGGGGSGGGSHHHHHH
B12: the Kd was 16 nM.

B13: anti-DLL3 trispecific protein, DLL3 binder 4H01 (protein, part only; not given: CD3 binder and albumin binder, part only)
chain, part: EVQLVESGGGLVQPGGSLTLSCAASGSSVSFLSMAWYRQAPGKKRELVAGISANGSTDYYDSVKGRFTISRDNAKNSVYLQMNSLRAEDTAVYYCYAYRWRTRYTYWGQGTLVTVSSGGGGSGGGSGGGGSGGGSHHHHHH
For the molecule B13, the equilibrium dissociation constant (Kd) was determined as 21 nM.

B14: anti-DLL3 trispecific protein, DLL3 binder 3B09 (protein, part only; not given: CD3 binder and albumin binder, part only)
chain, part: EVQLVESGGGLVQPGGSLTLSCAASGSHVSFLSMAWYRQAPGKKRELVAGISANGSTDYIDSVKGRFTISRDNAKNSVYLQMNSLRAEDTAVYYCYAYRWTTRYAYWGQGTLVTVSSGGGGSGGGSGGGGSGGGSHHHHHH
B14 came in with a Kd of 20 nM.

B15: anti-DLL3 trispecific protein, DLL3 binder 4G07 (protein, part only; not given: anti-CD3 fragment and anti-albumin domain, part only)
chain, part: EVQLVESGGGLVQPGGSLTLSCAASGSSVSFLSVAWYRQAPGKKRELVAGISANGSTDYIDSVKGRFTISRDNAKNSVYLQMNSLRAEDTAVYYCYAYRWTNRYTYWGQGTLVTVSSGGGGSGGGSGGGGSGGGSHHHHHH
For the molecule B15, the dissociation constant (Kd) amounted to 18 nM.

B16: anti-DLL3 trispecific protein, DLL3 binder 4F02 (protein, part only; not given: anti-CD3 fragment and anti-albumin domain, part only)
chain, part: EVQLVESGGGLVQPGGSLTLSCAASGSTVSFLSMAWYRQAPGKKRELVAGISHDGSTDYIDSVKGRFTISRDNAKNSVYLQMNSLRAEDTAVYYCYAYRWTTRYTYWGQGTLVTVSSGGGGSGGGSGGGGSGGGSHHHHHH
The molecule B16 came in with a Kd of 15 nM.

B17: anti-DLL3 trispecific protein, DLL3 binder 3E01 (protein, part only; not given: anti-CD3 fragment and anti-albumin sdAb, part only)
chain, part: EVQLVESGGGLVQPGGSLTLSCAASGSSVKFLSMAWYRQAPGKKRELVAGISADGSTMYIDSVKGRFTISRDNAKNSVYLQMNSLRAEDTAVYYCYAYRWHTRYTYWGQGTLVTVSSGGGGSGGGSGGGGSGGGSHHHHHH
In turn, B17 gave a dissociation constant (Kd) of 16 nM.

B18: anti-DLL3 trispecific protein, DLL3 binder 3A01 (protein, part only; not given: anti-CD3 fragment and anti-albumin sdAb, part only)
chain, part: EVQLVESGGGLVQPGGSLTLSCAASGSSVKFLSMAWYRQAPGKKRELVAGISADGSTDYIDSVKGRFTISRDNAKNSVYLQMNSLRAEDTAVYYCYAYRWTRRYTYWGQGTLVTVSSGGGGSGGGSGGGGSGGGSHHHHHH
Molecule B18 came in with a Kd of 16 nM.

B19: anti-DLL3 trispecific protein, DLL3 binder 4A08 (protein, part only; not given: CD3 binder and albumin binder, part only)
chain, part: EVQLVESGGGLVQPGGSLTLSCAASGSSVSFLSMAWYRQAPGKKRELVAGISADGSTNYIDSVKGRFTISRDNAKNSVYLQMNSLRAEDTAVYYCYAYRWRTRYTYWGQGTLVTVSSGGGGSGGGSGGGGSGGGSHHHHHH
B19 gave a Kd of 24 nM.

B20: anti-DLL3 trispecific protein, DLL3 binder 4B06 (protein, part only; not given: anti-CD3 fragment and anti-albumin domain, part only)
chain, part: EVQLVESGGGLVQPGGSLTLSCAASGSRVSFLSMAWYRQAPGKKRELVAGISADGSTDYFDSVKGRFTISRDNAKNSVYLQMNSLRAEDTAVYYCYAYRWTRRYTYWGQGTLVTVSSGGGGSGGGSGGGGSGGGSHHHHHH
Consider B20, for which the dissociation constant Kd was 16 nM.

B21: anti-DLL3 trispecific protein, DLL3 binder 4H07 (protein, part only; not given: anti-CD3 fragment and anti-albumin sdAb, part only)
chain, part: EVQLVESGGGLVQPGGSLTLSCAASGRSVSFLSMAWYRQAPGKKRELVAGISANGSTDYIDSVKGRFTISRDNAKNSVYLQMNSLRAEDTAVYYCYAYRWSTRYTYWGQGTLVTVSSGGGGSGGGSGGGGSGGGSHHHHHH
Regarding B21, the equilibrium dissociation constant (Kd) came to 16 nM.

B22: anti-DLL3 trispecific protein, DLL3 binder 4G03 (protein, part only; not given: CD3 binder and albumin binder, part only)
chain, part: EVQLVESGGGLVQPGGSLTLSCAASGSSVKFLSMAWYRQAPGKKRELVAGISADGSTDYIHSVKGRFTISRDNAKNSVYLQMNSLRAEDTAVYYCYAYRWTRRYTYWGQGTLVTVSSGGGGSGGGSGGGGSGGGSHHHHHH
Regarding B22, the dissociation constant Kd turned out to be 20 nM.

B23: anti-DLL3 trispecific protein, DLL3 binder 4B05 (protein, part only; not given: anti-CD3 fragment and anti-albumin domain, part only)
chain, part: EVQLVESGGGLVQPGGSLTLSCAASGSRVSFLSMAWYRQAPGKKRELVAGISADGHTDYIDSVKGRFTISRDNAKNSVYLQMNSLRAEDTAVYYCYAYRWTTRYTHWGQGTLVTVSSGGGGSGGGSGGGGSGGGSHHHHHH
Consider B23, for which the dissociation constant Kd was 18 nM.

B24: anti-DLL3 trispecific protein, DLL3 binder 3B04 (protein, part only; not given: CD3 binder and albumin binder, part only)
chain, part: EVQLVESGGGLVQPGGSLTLSCAASGSNVSFLSMAWYRQAPGKKRELVAGISARGSTDYIDSVKGRFTISRDNAKNSVYLQMNSLRAEDTAVYYCYAYHWTTRYTYWGQGTLVTVSSGGGGSGGGSGGGGSGGGSHHHHHH
Molecule B24 gave a Kd of 24 nM. This Kd and that of the molecule before are within 1.5-fold of each other.

B25: anti-DLL3 trispecific protein, DLL3 binder 4G02 (protein, part only; not given: CD3 binder and albumin binder, part only)
chain, part: EVQLVESGGGLVQPGGSLTLSCAASGSSVKFLSMAWYRQAPGKKRELVAGISRDGSTDYIDSVKGRFTISRDNAKNSVYLQMNSLRAEDTAVYYCYAYRWTTRHTYWGQGTLVTVSSGGGGSGGGSGGGGSGGGSHHHHHH
Consider B25, for which the equilibrium dissociation constant (Kd) is 15 nM.

B26: anti-DLL3 trispecific protein, DLL3 binder 4C08 (protein, part only; not given: CD3 binder and albumin binder, part only)
chain, part: EVQLVESGGGLVQPGGSLTLSCVASGSQVSFLSMAWYRQAPGKKRELVAGISADGSTDYFDSVKGRFTISRDNAKNSVYLQMNSLRAEDTAVYYCYAYRWTRRYTYWGQGTLVTVSSGGGGSGGGSGGGGSGGGSHHHHHH
In turn, B26 came in with a dissociation constant (Kd) of 16 nM.

B27: anti-DLL3 trispecific protein, DLL3 binder 3G02 (protein, part only; not given: CD3 binder and albumin binder, part only)
chain, part: EVQLVESGGGLVQPGGSLTLSCAASGSSVSFLSMAWYRQAPGKKRELVAGISADGRTDYIDSVKGRFTISRDNAKNSVYLQMNSLRAEDTAVYYCYAYRWRTRYTYWGQGTLVTVSSGGGGSGGGSGGGGSGGGSHHHHHH
Turning to B27, the Kd amounted to 20 nM.

B28: anti-DLL3 trispecific protein, DLL3 binder 3A06 (protein, part only; not given: anti-CD3 fragment and anti-albumin domain, part only)
chain, part: EVQLVESGGGLVQPGGSLTLRCAASGSKVSFLSMAWYRQAPGKKRELVAGISADGSTDYVDSVKGRFTISRDNAKNSVYLQMNSLRAEDTAVYYCYAYRWTRRYTYWGQGTLVTVSSGGGGSGGGSGGGGSGGGSHHHHHH
As to B28, the Kd came to 16 nM.

B29: anti-DLL3 trispecific protein, DLL3 binder 3G011 (protein, part only; not given: anti-CD3 fragment and anti-albumin sdAb, part only)
chain, part: EVQLVESGGGLVQPGGSLTLSCAASGSRVSFLSMAWYRQAPGKKRELVAGISADGSTGYIDSVKGRFTISRDNAKNSVYLQMNSLRAEDTAVYYCYAYRWATRYTYWGQGTLVTVSSGGGGSGGGSGGGGSGGGSHHHHHH
With B29, the Kd came out at 17 nM.

B30: anti-DLL3 trispecific protein, DLL3 binder 3E03 (protein, part only; not given: CD3 binder and albumin binder, part only)
chain, part: EVQLVESGGGLVQPGGSLTLSCAASGSSVRFLSMAWYRQAPGKKRELVAGISGDGSTDYIDSVKGRFTISRDNAKNSVYLQMNSLRAEDTAVYYCYAYRWMTRYTYWGQGTLVTVSSGGGGSGGGSGGGGSGGGSHHHHHH
In the case of B30, the Kd came out at 20 nM.

These data come from patent US20200095340A1.
